Target: SARS-CoV-2 Omicron-S (SARS-CoV-2) (UniProt P0DTC2)
Assay: cryo-EM structure

## SARS-CoV-2 Omicron-S (from UniProt P0DTC2 340-527) (natural protein)
  stoichiometry N: 3
